Molecular target: T1, LigB9-11 (Leptospira interrogans serovar …)
T1 construct: pET-20b(+) adds an initiating methionine and a C-terminal LEH6 tail; not shown: His6 (LEH6 tail), C-terminal, kept
Assay: ELISA; host protein (1 µg per well) immobilised in microtiter wells, blocked with 20 mg/mL BSA; recombinant LigB in 20 mg/mL BSA in PBS pH 7.2, 1 h at 37°C; bound LigB detected by its polyhistidine tag; apparent Kd from the LigB concentration at half-maximal binding
Details: both partners purified

B1: fibrinogen fragment D (complex)
chain 1: VSEDLRSRIEVLKRKVIEKVQHIQLLQKNVRAQLVDMKRLEVDIDIKIRSCRGSCSRALAREVDLKDYEDQQKQLEQVIAKDLLPSR
chain 2: DNENVVNEYSSELEKHQLYIDETVNSNIPTNLRVLRSILENLRSKIQKLESDVSAQMEYCRTPCTVSCNIPVVSGKECEEIIRKGGETSEMYLIQPDSSVKPYRVYCDMNTENGGWTVIQNRQDGSVDFGRKWDPYKQGFGNVATNTDGKNYCGLPGEYWLGNDKISQLTRMGPTELLIEMEDWKGDKVKAHYGGFTVQNEANKYQISVNKYRGTAGNALMDGASQLMGENRTMTIHNGMFFSTYDRDNDGWLTSDPRKQCSKEDGGGWWYNRCHAANPNGRYYWGGQYTWDMAKHGTDDGVVWMNWKGSWYSMRKMSMKIRPFFPQQ
chain 3: KMLEEIMKYEASILTHDSSIRYLQEIYNSNNQKIVNLKEKVAQLEAQCQEPCKDTVQIHDITGKDCQDIANKGAKQSGLYFIKPLKANQQFLVYCEIDGSGNGWTVFQKRLDGSVDFKKNWIQYKEGFGHLSPTGTTEFWLGNEKIHLISTQSAIPYALRVELEDWNGRTSTADYAMFKVGPEADKYRLTYAYFAGGDAGDAFDGFDFGDDPSDKFFTSHNGMQFSTWDNDNDKFEGNCAEQDGSGWWMNKCHAGHLNGVYYQGGTYSKASTPNGYDNGIIWATWKTRWYSMKKTTMKIIPFNRLTIGEGQQHHLGGAK
Binder B1 has a Kd of 26 nM.

Source: publication PMC3036719, “The Multifunctional LigB Adhesin Binds Homeostatic Proteins with Potential Roles in Cutaneous Infection by Pathogenic Leptospira interrogans” (PLoS ONE, 2011)
